# Experimental data published in patent US20250002610A1 (Genmab, published 2025).
# T1: human DR4 (Death Receptor 4), cell surface expressed on human tumor cell lines (human, UniProt O00220 24-468)
# T1 construct: also called TNFRSF10A; TRAIL-R1
# T1 sequence: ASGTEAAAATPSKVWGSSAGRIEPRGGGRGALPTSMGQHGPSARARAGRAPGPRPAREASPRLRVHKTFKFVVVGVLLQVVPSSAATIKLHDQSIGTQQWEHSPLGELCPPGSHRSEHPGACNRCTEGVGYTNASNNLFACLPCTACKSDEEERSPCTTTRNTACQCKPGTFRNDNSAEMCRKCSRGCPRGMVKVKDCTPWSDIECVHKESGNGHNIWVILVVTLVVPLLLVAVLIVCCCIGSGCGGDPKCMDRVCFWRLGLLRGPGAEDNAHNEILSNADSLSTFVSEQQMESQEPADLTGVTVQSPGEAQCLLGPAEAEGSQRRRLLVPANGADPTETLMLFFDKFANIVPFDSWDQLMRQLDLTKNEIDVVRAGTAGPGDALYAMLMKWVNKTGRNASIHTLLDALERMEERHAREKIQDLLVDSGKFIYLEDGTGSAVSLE
# B1: BisG1-b12-FERL/DR4-FERR (bispecific antibody, human IgG1, kappa, lambda)
# heavy 1: QVQLVQSGAEVKKPGASVKVSCQASGYRFSNFVIHWVRQAPGQRFEWMGWINPYNGNKEFSAKFQDRVTFTADTSANTAYMELRSLRSADTAVYYCARVGPYSWDDSPQDNYYMDVWGKGTTVIVSSASTKGPSVFPLAPSSKSTSGGTAALGCLVKDYFPEPVTVSWNSGALTSGVHTFPAVLQSSGLYSLSSVVTVPSSSLGTQTYICNVNHKPSNTKVDKRVEPKSCDKTHTCPPCPAPEFERGPSVFLFPPKPKDTLMISRTPEVTCVVVDVSHEDPEVKFNWYVDGVEVHNAKTKPREEQYNSTYRVVSVLTVLHQDWLNGKEYKCKVSNKALPAPIEKTISKAKGQPREPQVYTLPPSREEMTKNQVSLTCLVKGFYPSDIAVEWESNGQPENNYKTTPPVLDSDGSFLLYSKLTVDKSRWQQGNVFSCSVMHEALHNHYTQKSLSLSPG
# light 1: EIVLTQSPGTLSLSPGERATFSCRSSHSIRSRRVAWYQHKPGQAPRLVIHGVSNRASGISDRFSGSGSGTDFTLTITRVEPEDFALYYCQVYGASSYTFGQGTKLERKRTVAAPSVFIFPPSDEQLKSGTASVVCLLNNFYPREAKVQWKVDNALQSGNSQESVTEQDSKDSTYSLSSTLTLSKADYEKHKVYACEVTHQGLSSPVTKSFNRGEC
# heavy 2: QVQLQESGPGLVKPSGTLSLTCAVSGGSISSYSWWSWIRQPPGKGLEWIGELYHSGSTNYNPSLKSRVTISVDKSKNQFSLKLRSVTAADTAVYYCVRGVATIDYWGQGTLVTVSSASTKGPSVFPLAPSSKSTSGGTAALGCLVKDYFPEPVTVSWNSGALTSGVHTFPAVLQSSGLYSLSSVVTVPSSSLGTQTYICNVNHKPSNTKVDKRVEPKSCDKTHTCPPCPAPEFERGPSVFLFPPKPKDTLMISRTPEVTCVVVDVSHEDPEVKFNWYVDGVEVHNAKTKPREEQYNSTYRVVSVLTVLHQDWLNGKEYKCKVSNKALPAPIEKTISKAKGQPREPQVYTLPPSREEMTKNQVSLTCLVKGFYPSDIAVEWESNGQPENNYKTTPPVLDSDGSFFLYSRLTVDKSRWQQGNVFSCSVMHEALHNHYTQKSLSLSPG
# light 2: QSALTQPPSASGSPGQSVTISCTGTSSDVGGYNFVSWYQQDPGKAPKLLIYEVTKRPSGVPDRFSGSKSGNTASLTVSGLQAEDEADYYCSSYAGSNNVMFGGGTKLTVLGQPKAAPSVTLFPPSSEELQANKATLVCLISDFYPGAVTVAWKADSSPVKAGVETTTPSKQSNNKYAASSYLSLTPEQWKSHRSYSCQVTHEGSTVEKTVAPTECS
# notes: Fab-arm exchange of IgG1-b12-FERL and IgG1-DR4-FERR; also called bsIgG1-ctrl-FERLxDR4-FERR
# Tests used:
# [1] = biological target: T1, human DR4 (Death Receptor 4), cell …; assay: flow cytometry, PANC-1 cells, n = 1
# [2] = biological target: T1, human DR4 (Death Receptor 4), cell …; assay: flow cytometry, PANC-1 cells, average ± SEM
binder,measurement,setting,value
B1,EC50,[1],1.35 µg/mL
same,EC50,[2],1.63 µg/mL
